Measurements published in paper PMC8259991, “Transgenerational inheritance of centromere identity requires the CENP-A N-terminal tail in the C. elegans maternal germ line” (PLoS Biology, 2021).

Biological target: T1, KNL-2 central region (aa 269-470), recombinant (C. elegans, UniProt O44548 269-470)
T1 construct: The His9-MBP tag was cut off with TEV protease after mixing and before the pull-down; also called KNL-2 central fragment; source: E. coli BL21-Star, purified (MBP FF crude column, desalting); not shown: His9-MBP, N-terminal, cleaved
T1 sequence (looked up): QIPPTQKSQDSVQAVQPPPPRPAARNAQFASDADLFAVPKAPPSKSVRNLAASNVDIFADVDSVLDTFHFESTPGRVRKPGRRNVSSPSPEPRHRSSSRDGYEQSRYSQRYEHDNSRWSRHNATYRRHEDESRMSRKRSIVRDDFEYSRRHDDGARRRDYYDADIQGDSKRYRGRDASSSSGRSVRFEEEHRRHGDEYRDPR
Test: pull-down; recombinant proteins mixed in equimolar amounts, 1 h at RT, TEV digestion 30 min at RT, glutathione magnetic agarose beads 1 h at RT; SDS-PAGE with Coomassie stain
Details: both partners purified

binding result: binds
B1: CENP-A N-terminal tail (aa 1-179) fused to GST (domain or fragment, C. elegans, UniProt P34470 1-179, looked up)
chain: MADDTPIIEEIAEQNESVTRIMQRLKHDMQRVTSVPGFNTSAAGVNDLIDILNQYKKELEDDAANDYTEAHIHKIRLVTGKRNQYVLKLKQAEDEYHARKEQARRRASSMDFTVGRNSTNLVDYSHGRHHMPSYRRHDSSDEENYSMDGTNGDGNRAGPSNPDRGNRTGPSSSDRVRMR
notes: CENP-A homolog HCP-3, C. elegans, residues 1-179 (N-terminal tail); The His9-MBP tag was cut off with TEV protease after the two proteins had been mixed and before the pull-down on glutathione beads; also called His9-MBP-TEV-CENP-A^1-179-GST; GST::CENP-A N-terminal tail; source: E. coli BL21-Star, purified (Ni-charged chelating HiTrap column, desalting); not shown: His9-MBP, N-terminal, cleaved; …
